Experimental findings from patent US20250215104A1 (WALDEN BIOSCIENCES, published 2025) are described below.

The labels stand for the following.
B1: suPAR_DB03_D08 (scFv, V domains shown)
VH: QVQLVQSGAEVKKPGASVKVSCKASGYTFTGYYMHWVRQAPGQGLEWMGWIDPENGSTIYDQKFQGRVTMTRDTSTSTVYMELSSLRSEDTAVYYCARGYDVDWFVYWGQGTLVTVSS
VL: DIQMTQSPSSLSASVGDRVTITCSARQSVSYMYWYQQKPGKAPKLLIYRTSNLASGVPSRFSGSGSGTDFTLTISSLQPEDFATYYCQQYHSYPPTFGGGTKVEIK
notes: screened as scFv
B2: suPAR_DB03_E09 (scFv, V domains shown)
VH: QVQLVQSGAEVKKPGASVKVSCKASGFNIKDYYIHWVRQAPGQGLEWMGWIDPNSGGTNYAQKFQGRVTMTRDTSTSTVYMELSSLRSEDTAVYYCARGYDVDWFVYWGQGTLVTVSS
VL: B1 VL with S24R
notes: screened as scFv
B3: suPAR_DB03_D10 (scFv, V domains shown)
VH: B1 VH with G31S, S57N, D61A
VL: B1 VL with Q27S, A54Q
notes: screened as scFv
B4: suPAR_DB03_E04 (scFv, V domains shown)
VH: B1 VH with Y32H
VL: B1 VL with Q27S
notes: screened as scFv
B5: suPAR_DB03_E08 (scFv, V domains shown)
VH: B1 VH with G31H, N55G
VL: B1 VL with S24R, R26S, Q27S
notes: screened as scFv
B6: suPAR_DB03_D12 (scFv, V domains shown)
VH: B1 VH with T30S, G31N, S57N, D61A
VL: B1 VL with S24R, Q27S, A54Q
notes: screened as scFv
B7: suPAR_DB03_E03 (scFv, V domains shown)
VH: B1 VH with F29V, G31N, P53H, S57N
VL: B1 VL with S24R, Q27S
notes: screened as scFv
B8: suPAR_DB03_D09 (scFv, V domains shown)
VH: B1 VH with P53H, D61A
VL: B1 VL with Q27S, A54Q
notes: screened as scFv
B9: suPAR_DB03_E02 (scFv, V domains shown)
VH: B1 VH with T28N, M34I, P53H, S57N, D61A
VL: B1 VL with Q27S
notes: screened as scFv
B10: suPAR_DB03_E06 (scFv, V domains shown)
VH: B1 VH with Y32Q, M34V, P53H, S57N
VL: B1 VL with Q27S
notes: screened as scFv
B11: suPAR_DB04_D09 (scFv, V domains shown)
VH: B1 VH with G31A, P53H, S57N
VL: B1 VL with Q27S
notes: scFv clone from phage display
B12: suPAR_DB04_D03 (scFv, V domains shown)
VH: B1 VH with G31S
VL: B1 VL with S24R
notes: scFv clone from phage display
B13: suPAR_DB04_E08 (scFv, V domains shown)
VH: B1 VH with P53H, S57N, I59S, D61A
VL: B1 VL with Q27S
notes: scFv clone from phage display
B14: suPAR_DB04_C09 (scFv, V domains shown)
VH: B1 VH with T30S, G31T, H35Q
VL: B1 VL with Q27S, T50A
notes: scFv clone from phage display
B15: suPAR_DB04_C05 (scFv, V domains shown)
VH: B1 VH with Y27H, F29L, T30N, G31S, P53H, S57N
VL: B1 VL with Q27S
notes: scFv clone from phage display
B16: suPAR_DB04_D08 (scFv, V domains shown)
VH: B2 VH with F27Y, N28T, I29L, K30S, D31G, I34M, G57A, Y60D, Q62P
VL: B1 VL with Q27S
notes: scFv clone from phage display
B17: suPAR_DB04_C06 (scFv, V domains shown)
VH: B1 VH with T30S, G31A, M34I, P53H, S57N, Y100N
VL: B1 VL with A54Q
notes: scFv clone from phage display
B18: suPAR_DB04_E07 (scFv, V domains shown)
VH: B1 VH with Y27D, G31S, M34I, P53H, S57N
VL: B1 VL with Q27S
notes: scFv clone from phage display
B19: suPAR_DB04_E10 (scFv, V domains shown)
VH: B1 VH with T30S, G31S, M34F, E54N, N55T, S57D, D61A
VL: B1 VL with Q27S
notes: scFv clone from phage display
B20: suPAR_DB04_E03 (scFv, V domains shown)
VH: B1 VH with G31N, P53H, N55G, D61A
VL: B1 VL with Q27S
notes: scFv clone from phage display
B21: suPAR_DB04_C04 (scFv, V domains shown)
VH: B1 VH with P53H, S57N, I59S
VL: B1 VL with R26S
notes: scFv clone from phage display
B22: suPAR_DB04_E09 (scFv, V domains shown)
VH: B1 VH with Y27D, G31D, M34I, P53H, I59S
VL: B1 VL with S24R
notes: scFv clone from phage display
B23: suPAR_DB04_E06 (scFv, V domains shown)
VH: B1 VH with T28S, G31S, Y32H, P53H, S57N
VL: B1 VL with S24R, Q27S
notes: scFv clone from phage display
B24: suPAR_DB04_C02 (scFv, V domains shown)
VH: B1 VH with Y27N, T30I, M34V, P53H, S57N, I59S, Y100N
VL: B1 VL with Q27S
notes: scFv clone from phage display
B25: suPAR_DB04_D10 (scFv, V domains shown)
VH: B1 VH with G31S, N55G, S57N, I59S, R98T
VL: B1 VL with Q27S
notes: scFv clone from phage display
B26: suPAR_DB04_E11 (scFv, V domains shown)
VH: B1 VH with G31N, M34V, P53H, S57N
VL: B1 VL
notes: scFv clone from phage display
B27: suPAR_DB04_C11 (scFv, V domains shown)
VH: B1 VH with T28S, G31D
VL: B1 VL with Q27S
notes: scFv clone from phage display
B28: suPAR_DB04_E04 (scFv, V domains shown)
VH: B1 VH with G31S, M34V, P53H, S57N, Y100T
VL: B1 VL with S24R
notes: scFv clone from phage display
B29: suPAR_DB04_D07 (scFv, V domains shown)
VH: B1 VH with T30G, G31S, P53H, S57N
VL: B1 VL with S24R
notes: scFv clone from phage display
B30: suPAR_DB04_D05 (scFv, V domains shown)
VH: B1 VH with G31T, M48V, E54H, N55S, S57G, I59N, D61A
VL: B1 VL with Q27S
notes: scFv clone from phage display
B31: suPAR_DB04_C07 (scFv, V domains shown)
VH: B1 VH with G31S, P53H, E54S, S57N, Y100D
VL: B1 VL with Q27S
notes: scFv clone from phage display
B32: suPAR_DB04_C03 (scFv, V domains shown)
VH: B1 VH with G31S, R98S
VL: B1 VL with Q27S
notes: scFv clone from phage display
B33: suPAR_DB04_C12 (scFv, V domains shown)
VH: B1 VH with Y27H, F29I, G31S, P53H, D61A
VL: B1 VL with S24R, R26S, Q27S
notes: scFv clone from phage display
B34: suPAR_DB04_D04 (scFv, V domains shown)
VH: B1 VH with F29I, T30K, G31D, P53H, D61A
VL: B1 VL with Q27S
notes: scFv clone from phage display

Where a chain is given by its changes, count along the chain named.

One test addresses T1, human soluble urokinase plasminogen activator receptor (hsuPAR) (human, UniProt Q03405 23-303, limits assumed).
T1 construct: Target antigen of the off-rate screen; also called human suPAR; rhuPAR-His
In words: BLI (Octet) off-rate screen of scFv clones. A general note: In BLI a coated tip is dipped into the sample, and binding shifts an interference pattern.
T1 sequence (Q03405 23-303 limits assumed): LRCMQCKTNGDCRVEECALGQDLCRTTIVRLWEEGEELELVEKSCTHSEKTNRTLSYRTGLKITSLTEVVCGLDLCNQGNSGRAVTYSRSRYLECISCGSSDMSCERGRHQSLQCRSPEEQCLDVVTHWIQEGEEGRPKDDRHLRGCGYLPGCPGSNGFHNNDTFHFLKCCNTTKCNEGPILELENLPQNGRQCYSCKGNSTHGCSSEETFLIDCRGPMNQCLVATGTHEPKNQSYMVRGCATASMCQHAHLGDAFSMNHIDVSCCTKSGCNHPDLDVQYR
For orientation: koff means a measure of how fast the partners let go of each other. Low readings indicate slow dissociation, high ones fast dissociation. Molecule B1 gave a koff of 0.00458 s⁻¹.
The same measure, in the same setting: in the case of B2 it was 0.00426 s⁻¹; in that of B3, 0.00527 s⁻¹; in that of B4, 0.00556 s⁻¹.
In turn, B5 showed a koff of 0.005 s⁻¹.
B6: the off-rate (koff) came out at 0.0057 s⁻¹.
Still for that read-out and setting: in the case of B7 it was 0.00231 s⁻¹; in that of B8, 0.000746 s⁻¹; in that of B9, 0.00358 s⁻¹.
On the same count and under the same terms, for B10 the value was 0.0044 s⁻¹.

Another test deals with T2, cynomolgus suPAR (cynomolgus, UniProt Q9GK78 23-303, limits assumed).
T2 construct: Target antigen of the off-rate screen; also called cynomolgus uPAR; cynoPLAUR-His
T2 sequence (Q9GK78 23-303 limits assumed): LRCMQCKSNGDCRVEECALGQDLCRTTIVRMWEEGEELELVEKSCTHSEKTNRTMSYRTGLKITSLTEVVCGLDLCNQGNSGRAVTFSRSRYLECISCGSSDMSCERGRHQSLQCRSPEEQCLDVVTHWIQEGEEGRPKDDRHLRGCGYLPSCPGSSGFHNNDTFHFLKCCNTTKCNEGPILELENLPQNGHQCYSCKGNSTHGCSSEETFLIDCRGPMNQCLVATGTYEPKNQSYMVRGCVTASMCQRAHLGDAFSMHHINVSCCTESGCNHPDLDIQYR
Briefly: BLI (Octet) off-rate screen of scFv clones.
In turn, B1 gave a koff of 0.000482 s⁻¹.
With B2, the koff came out at 0.000132 s⁻¹.
On to B3, for which the koff turned out to be 0.000286 s⁻¹.
On the same count and under the same terms, in the case of B4 it was 0.000669 s⁻¹; in that of B5, 0.00025 s⁻¹.
With B6, the dissociation rate constant (koff) is 0.000263 s⁻¹.
On to B7, for which the koff worked out at 0.000132 s⁻¹.
B8 had a koff of 0.000508 s⁻¹.
Same read-out and setting: for B9 the value was 0.000258 s⁻¹.
Same read-out and setting: in the case of B10 it was 7.36e-05 s⁻¹.

A further test deals with T3, human soluble urokinase plasminogen activator receptor (hsuPAR) (human, UniProt Q03405 23-303, limits assumed).
T3 construct: also called human suPAR; rhuPAR-His
Briefly: off-rate screen of scFv clones (kdis), Octet BLI.
T3 sequence (Q03405 23-303 limits assumed): as the sequence (Q03405 23-303 limits assumed) above
For B11, the koff was found to be 0.00203 s⁻¹.
Take B12: the koff is 0.00408 s⁻¹. Against the preceding molecule, the koff is about 2-fold higher.
The same measure, in the same setting: in the case of B13 it was 0.00268 s⁻¹; in that of B14, 0.0013 s⁻¹.
Molecule B15 registered a koff of 0.00245 s⁻¹. This koff is about 1.9-fold higher than that of the molecule before.
In the case of B16, the koff was 0.00414 s⁻¹.
B17 returned a koff of 0.00412 s⁻¹. This koff and that of the molecule before are within 1.5-fold of each other.
Still for that read-out and setting: in the case of B18 it was 0.00311 s⁻¹; in that of B19, 0.00116 s⁻¹.
In the case of B20, the koff worked out at 0.00116 s⁻¹.
With B21, the koff stood at 0.00229 s⁻¹.
Still for that read-out and setting: in the case of B22 it was 0.00598 s⁻¹; in that of B23, 0.00564 s⁻¹.
For B24, the koff stood at 0.00411 s⁻¹.
Still for that read-out and setting: in the case of B25 it was 0.005 s⁻¹.
Still for that read-out and setting: in the case of B26 it was 0.00502 s⁻¹.
Still for that read-out and setting: for B27 the value was 0.00562 s⁻¹; for B28, 0.00335 s⁻¹.
The molecule B29 displayed a koff of 0.00217 s⁻¹.
Regarding B30, the koff was 0.004 s⁻¹.
For the molecule B31, the koff came to 0.0031 s⁻¹. The koff values of the last two molecules are within 1.5-fold of each other.
In turn, B32 returned a koff of 0.00368 s⁻¹. The koff values of the last two molecules are within 1.5-fold of each other.
B33 had a dissociation rate constant (koff) of 0.000626 s⁻¹.
Take B34: the koff worked out at 0.00188 s⁻¹.

The next test deals with T4, cynomolgus soluble urokinase plasminogen activator receptor (cynomolgus suPAR) (cynomolgus, UniProt Q9GK78 23-303, limits assumed).
T4 construct: also called cynomolgus uPAR; cynoPLAUR-His
T4 sequence (Q9GK78 23-303 limits assumed): as the sequence (Q9GK78 23-303 limits assumed) above
Briefly: off-rate screen of scFv clones (kdis), Octet BLI.
The molecule B11 gave a koff of 0.000206 s⁻¹.
B12 came in with a koff of 0.000353 s⁻¹.
B13: the koff was determined as 0.000149 s⁻¹. This koff is about 2.4-fold lower than that of the molecule before.
With B14, the koff is 0.00154 s⁻¹.
Take B15: the koff was found to be 0.000421 s⁻¹.
Still for that read-out and setting: in the case of B16 it was 0.000343 s⁻¹.
The molecule B17 showed a koff of 4.14e-05 s⁻¹.
On to B18, for which the off-rate constant (koff) stood at 0.00023 s⁻¹.
For B19, the koff came to 0.000142 s⁻¹.
On the same count and under the same terms, in the case of B20 it was 0.000224 s⁻¹; in that of B21, 0.000384 s⁻¹.
On the same count and under the same terms, for B22 the value was 0.000446 s⁻¹.
The same measure, in the same setting: for B23 the value was 0.000137 s⁻¹.
For the molecule B24, the koff was 0.000146 s⁻¹.
On the same count and under the same terms, for B25 the value was 0.000402 s⁻¹.
The same measure, in the same setting: for B26 the value was 0.000158 s⁻¹; for B27, 0.000483 s⁻¹; for B28, 0.000451 s⁻¹.
Regarding B29, the off-rate constant (koff) came to 0.000436 s⁻¹.
Same read-out and setting: in the case of B30 it was 5.44e-05 s⁻¹.
For the molecule B31, the koff worked out at 0.000249 s⁻¹.
B32 showed a dissociation rate constant (koff) of 0.000158 s⁻¹. This koff lies about 1.6-fold lower than the previous one.
B33 registered a koff of 0.000255 s⁻¹.
In turn, B34 registered an off-rate (koff) of 0.000184 s⁻¹.
